Experimental data from patent publication US20100015126A1, “Methods of Binding of Cross-Beta Structures By Chaperones” (priority 2006, published 2010).

Key:
[1] = molecular target: 187 kDa protein/Complement component 3 (human) (UniProt P01024); test: BiP-Sepharose pull-down, RA patient III serum (B4), MS of urea eluate; may be indirect
[2] = molecular target: Alpha-1-antitrypsin precursor/Serpin peptidase inhibitor, clade A, member 1 (human) (UniProt P01009); test: as above
[3] = molecular target: CD5 antigen-like precursor (SP-alpha, CT-2, IgM-associated peptide)/CD5 molecule-like (human) (UniProt O43866); test: as above
[4] = molecular target: Complement component 4 binding protein, alpha, C4b-binding protein alpha chain precursor (C4bp) (human) (UniProt P04003); test: as above
[5] = molecular target: Dapper homolog 1 (hDPR1) (human) (UniProt Q9NYF0); test: as above
[6] = molecular target: GCN1 general control of amino-acid synthesis 1-like 1 (yeast)/GCN1-like protein 1 (HsGCN1) (human) (UniProt Q92616); test: as above
[7] = molecular target: Hypothetical protein DKFZp686I04196 (Fragment)/Immunoglobulin heavy constant gamma 2 (G2m marker)/Ig gamma-2 chain C region (human) [IgG part: P01859]; test: as above
[8] = molecular target: IGLC1 protein (immunoglobulin lambda C1)/immunoglobulin lambda chain/immunoglobulin C1 segment protein (fragment) (human) (UniProt P0CG04); test: as above
[9] = molecular target: Ig lambda chain V-III region SH (human) (UniProt P01714); test: as above
[10] = molecular target: Immunoglobulin J chain, Immunoglobulin J polypeptide (human) (UniProt P01591); test: as above
[11] = molecular target: Immunoglobulin lambda variable 3-25/V2-17 protein (Fragment) (human) (UniProt P01717); test: as above
[12] = molecular target: Isoform 1 of Plectin-1 (human) (UniProt Q15149); test: as above
[13] = molecular target: Phosphatase and actin regulator 4 isoform 1/Hypothetical protein DKFZp686L07205 (human) (UniProt Q8IZ21); test: as above
[14] = molecular target: V1-3 protein (Fragment)/immunoglobulin lambda variable 2-11 (human) (UniProt P01706); test: as above
[15] = molecular target: Vitronectin precursor (Serum-spreading factor/S-protein) (human) (UniProt P04004); test: as above
[16] = molecular target: FLJ00385 protein (Fragment), immunoglobulin heavy constant mu (human) (UniProt P01871); test: BiP-Sepharose pull-down, RA synovial fluid sample 2B, 1 M NaCl eluate, MS; may be indirect
[17] = molecular target: IGHG4 protein, immunoglobulin heavy constant gamma 4 (human) [IgG part: P01861]; test: as above
[18] = molecular target: IGHM protein, coagulation factor VII (serum prothrombin conversion accelerator) (human) (UniProt P08709); test: as above
[19] = molecular target: FLJ00385 protein (Fragment), immunoglobulin heavy constant mu (human) (UniProt P01871); test: BiP-Sepharose pull-down, RA synovial fluid sample 3B, 1 M NaCl eluate, MS; may be indirect
[20] = molecular target: Haptoglobin precursor (human) (UniProt P00738); test: as above
[21] = molecular target: Ig kappa chain V-IV region Len, immunoglobulin kappa variable 4-1 (human) (UniProt P06312); test: as above
[22] = molecular target: 187 kDa protein/Complement component 3 (human) (UniProt P01024); test: BiP-Sepharose pull-down, RA synovial fluid sample 5B, 1 M NaCl eluate, MS; may be indirect
[23] = molecular target: 25 kDa protein/immunoglobulin lambda chain/rheumatoid factor G9 light chain (lambda V3)/IGLC1 protein (human) (UniProt P0CG04); test: as above
[24] = molecular target: Heat shock 70 kDa protein 1L (human) (UniProt P34931); test: as above
[25] = molecular target: Histidine-rich glycoprotein precursor (human) (UniProt P04196); test: as above
[26] = molecular target: Serotransferrin precursor (human) (UniProt P02787); test: as above
[27] = molecular target: Vitronectin precursor (Serum-spreading factor/S-protein) (human) (UniProt P04004); test: as above
[28] = molecular target: fibronectin 1 isoform 4 preproprotein (human) (UniProt P02751); test: as above
[29] = molecular target: Hypothetical protein/Heat shock 70 kDa protein 5 (glucose-regulated protein, 78 kDa = GRP78 = BiP = HSPA5), as identified in eluates (human) (UniProt P11021); test: BiP-Sepharose pull-down, RA synovial fluid sample 5B, 1 M NaCl eluate, MS; BiP may stem from the column

Sequence of 187 kDa protein/Complement component 3 (human) (P01024 23-1663 limits assumed): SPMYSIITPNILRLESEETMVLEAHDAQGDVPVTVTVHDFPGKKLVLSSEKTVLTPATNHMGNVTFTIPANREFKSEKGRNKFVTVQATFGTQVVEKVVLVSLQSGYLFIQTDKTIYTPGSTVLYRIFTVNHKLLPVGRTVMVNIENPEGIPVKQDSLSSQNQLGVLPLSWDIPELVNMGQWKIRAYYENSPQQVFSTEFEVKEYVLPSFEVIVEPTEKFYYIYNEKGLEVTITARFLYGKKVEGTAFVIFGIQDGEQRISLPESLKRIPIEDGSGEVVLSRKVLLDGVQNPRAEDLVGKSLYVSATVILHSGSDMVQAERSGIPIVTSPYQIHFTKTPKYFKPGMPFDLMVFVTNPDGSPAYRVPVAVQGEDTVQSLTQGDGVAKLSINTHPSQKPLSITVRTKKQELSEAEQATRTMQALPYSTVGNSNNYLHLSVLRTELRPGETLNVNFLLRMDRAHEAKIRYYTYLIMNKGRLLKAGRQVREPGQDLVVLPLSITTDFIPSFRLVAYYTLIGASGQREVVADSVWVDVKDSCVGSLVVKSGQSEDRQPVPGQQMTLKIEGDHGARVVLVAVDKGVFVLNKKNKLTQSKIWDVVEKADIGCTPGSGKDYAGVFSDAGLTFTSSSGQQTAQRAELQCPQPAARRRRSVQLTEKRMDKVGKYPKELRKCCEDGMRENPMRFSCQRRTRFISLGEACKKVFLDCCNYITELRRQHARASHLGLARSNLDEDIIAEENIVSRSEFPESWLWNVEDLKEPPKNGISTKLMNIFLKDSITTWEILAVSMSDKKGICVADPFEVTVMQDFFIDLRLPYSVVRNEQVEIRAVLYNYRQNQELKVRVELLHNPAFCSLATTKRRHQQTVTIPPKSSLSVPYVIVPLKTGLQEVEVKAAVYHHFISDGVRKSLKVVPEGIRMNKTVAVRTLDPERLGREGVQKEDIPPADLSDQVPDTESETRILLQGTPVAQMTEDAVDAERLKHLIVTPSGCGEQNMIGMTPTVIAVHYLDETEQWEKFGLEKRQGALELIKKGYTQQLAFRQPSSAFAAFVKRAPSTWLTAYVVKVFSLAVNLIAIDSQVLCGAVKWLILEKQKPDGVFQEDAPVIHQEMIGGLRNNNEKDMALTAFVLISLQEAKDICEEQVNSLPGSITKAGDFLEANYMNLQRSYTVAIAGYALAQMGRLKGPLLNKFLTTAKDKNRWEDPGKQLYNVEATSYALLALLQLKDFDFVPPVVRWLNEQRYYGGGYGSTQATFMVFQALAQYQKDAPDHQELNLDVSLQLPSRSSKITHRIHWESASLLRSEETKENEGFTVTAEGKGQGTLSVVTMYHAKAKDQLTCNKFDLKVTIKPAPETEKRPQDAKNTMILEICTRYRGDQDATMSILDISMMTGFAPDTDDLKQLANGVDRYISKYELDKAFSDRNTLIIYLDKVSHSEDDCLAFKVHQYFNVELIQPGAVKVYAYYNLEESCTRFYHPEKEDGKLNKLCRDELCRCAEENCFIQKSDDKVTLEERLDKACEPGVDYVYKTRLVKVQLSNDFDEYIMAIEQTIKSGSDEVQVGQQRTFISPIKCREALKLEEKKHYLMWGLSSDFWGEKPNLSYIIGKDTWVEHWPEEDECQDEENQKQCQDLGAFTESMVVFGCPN
Sequence of FLJ00385 protein (Fragment), immunoglobulin heavy constant mu (human) (P01871 other isoform, or with tags, fused parts or gaps limits assumed): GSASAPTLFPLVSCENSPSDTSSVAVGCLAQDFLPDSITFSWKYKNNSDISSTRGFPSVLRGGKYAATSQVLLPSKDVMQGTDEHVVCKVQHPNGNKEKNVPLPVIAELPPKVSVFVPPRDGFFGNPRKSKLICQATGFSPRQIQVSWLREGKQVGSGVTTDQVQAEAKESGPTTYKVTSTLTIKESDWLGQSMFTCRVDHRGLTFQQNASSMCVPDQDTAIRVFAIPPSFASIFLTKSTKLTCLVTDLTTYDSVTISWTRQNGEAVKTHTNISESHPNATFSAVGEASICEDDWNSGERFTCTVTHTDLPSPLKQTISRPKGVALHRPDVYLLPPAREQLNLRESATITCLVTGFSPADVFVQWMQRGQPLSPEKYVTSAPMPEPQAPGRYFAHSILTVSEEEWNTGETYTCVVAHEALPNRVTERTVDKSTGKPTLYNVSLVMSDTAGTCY
Sequence of Vitronectin precursor (Serum-spreading factor/S-protein) (human) (P04004 20-478 limits assumed): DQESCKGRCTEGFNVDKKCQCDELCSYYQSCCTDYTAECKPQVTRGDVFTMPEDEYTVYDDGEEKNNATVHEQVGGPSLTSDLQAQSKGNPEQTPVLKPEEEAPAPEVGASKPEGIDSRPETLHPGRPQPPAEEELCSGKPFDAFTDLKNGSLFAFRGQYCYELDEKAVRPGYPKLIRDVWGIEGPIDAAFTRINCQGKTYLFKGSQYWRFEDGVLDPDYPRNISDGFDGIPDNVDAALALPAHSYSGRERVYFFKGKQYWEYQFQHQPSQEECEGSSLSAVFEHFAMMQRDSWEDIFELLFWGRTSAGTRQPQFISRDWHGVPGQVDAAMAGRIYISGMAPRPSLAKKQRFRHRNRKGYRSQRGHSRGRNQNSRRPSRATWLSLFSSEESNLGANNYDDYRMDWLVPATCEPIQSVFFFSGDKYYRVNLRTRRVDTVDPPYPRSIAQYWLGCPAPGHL
Sequence of Ig lambda chain V-III region SH (human) (P01714 21-112 limits assumed): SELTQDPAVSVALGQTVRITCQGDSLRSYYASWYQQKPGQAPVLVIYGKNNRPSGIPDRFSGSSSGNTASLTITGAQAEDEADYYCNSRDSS
Sequence of Complement component 4 binding protein, alpha, C4b-binding protein alpha chain precursor (C4bp) (human) (P04003 49-597 limits assumed): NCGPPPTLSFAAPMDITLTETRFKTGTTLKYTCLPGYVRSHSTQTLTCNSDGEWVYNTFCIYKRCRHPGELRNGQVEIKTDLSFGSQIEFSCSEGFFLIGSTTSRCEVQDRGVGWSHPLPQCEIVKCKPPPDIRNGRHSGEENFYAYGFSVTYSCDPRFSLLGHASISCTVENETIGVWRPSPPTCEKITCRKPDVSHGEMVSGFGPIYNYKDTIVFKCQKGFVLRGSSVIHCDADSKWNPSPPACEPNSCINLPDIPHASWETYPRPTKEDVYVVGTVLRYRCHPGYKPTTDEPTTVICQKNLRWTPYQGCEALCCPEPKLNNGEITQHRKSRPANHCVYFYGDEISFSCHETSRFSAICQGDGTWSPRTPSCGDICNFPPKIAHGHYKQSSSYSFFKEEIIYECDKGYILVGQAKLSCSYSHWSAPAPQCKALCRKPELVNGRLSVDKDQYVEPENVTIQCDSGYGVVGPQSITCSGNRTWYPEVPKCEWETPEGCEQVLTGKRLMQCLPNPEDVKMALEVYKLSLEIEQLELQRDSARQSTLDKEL
Sequence of Histidine-rich glycoprotein precursor (human) (P04196 19-525 limits assumed): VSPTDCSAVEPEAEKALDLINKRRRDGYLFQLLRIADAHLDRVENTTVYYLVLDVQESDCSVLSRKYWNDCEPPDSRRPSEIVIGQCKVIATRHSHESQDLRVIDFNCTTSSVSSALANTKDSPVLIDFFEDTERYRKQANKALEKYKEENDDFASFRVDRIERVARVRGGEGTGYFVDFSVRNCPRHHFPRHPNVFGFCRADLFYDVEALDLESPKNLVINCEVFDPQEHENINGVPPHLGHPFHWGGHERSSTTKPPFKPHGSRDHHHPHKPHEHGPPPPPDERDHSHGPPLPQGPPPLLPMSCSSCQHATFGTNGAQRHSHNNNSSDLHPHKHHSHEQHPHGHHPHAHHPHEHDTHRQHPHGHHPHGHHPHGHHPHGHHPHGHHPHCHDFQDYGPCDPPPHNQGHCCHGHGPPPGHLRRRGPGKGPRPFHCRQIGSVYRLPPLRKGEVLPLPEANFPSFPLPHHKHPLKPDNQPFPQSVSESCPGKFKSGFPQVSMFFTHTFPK
Sequence of Dapper homolog 1 (hDPR1) (human) (Q9NYF0 whole entry): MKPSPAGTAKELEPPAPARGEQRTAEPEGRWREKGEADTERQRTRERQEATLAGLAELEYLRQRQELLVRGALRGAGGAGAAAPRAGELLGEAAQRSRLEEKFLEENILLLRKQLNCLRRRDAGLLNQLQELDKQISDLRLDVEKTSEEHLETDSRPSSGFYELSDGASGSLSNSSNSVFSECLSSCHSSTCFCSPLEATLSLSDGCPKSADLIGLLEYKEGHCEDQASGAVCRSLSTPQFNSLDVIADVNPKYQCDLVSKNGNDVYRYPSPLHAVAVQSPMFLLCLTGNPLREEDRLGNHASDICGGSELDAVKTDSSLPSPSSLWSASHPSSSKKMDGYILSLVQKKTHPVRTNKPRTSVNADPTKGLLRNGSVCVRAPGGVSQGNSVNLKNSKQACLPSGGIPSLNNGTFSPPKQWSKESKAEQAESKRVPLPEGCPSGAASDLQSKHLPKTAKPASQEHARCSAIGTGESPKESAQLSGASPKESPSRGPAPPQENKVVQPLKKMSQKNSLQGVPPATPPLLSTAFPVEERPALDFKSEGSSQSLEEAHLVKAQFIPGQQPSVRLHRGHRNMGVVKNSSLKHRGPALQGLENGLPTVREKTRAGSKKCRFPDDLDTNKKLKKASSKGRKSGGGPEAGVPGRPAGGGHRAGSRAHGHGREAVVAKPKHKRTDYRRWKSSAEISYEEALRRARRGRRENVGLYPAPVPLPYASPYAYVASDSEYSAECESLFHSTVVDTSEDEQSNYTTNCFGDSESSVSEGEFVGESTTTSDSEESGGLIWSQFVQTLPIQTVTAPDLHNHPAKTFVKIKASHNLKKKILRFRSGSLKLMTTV
Sequence of Alpha-1-antitrypsin precursor/Serpin peptidase inhibitor, clade A, member 1 (human) (P01009 25-418 limits assumed): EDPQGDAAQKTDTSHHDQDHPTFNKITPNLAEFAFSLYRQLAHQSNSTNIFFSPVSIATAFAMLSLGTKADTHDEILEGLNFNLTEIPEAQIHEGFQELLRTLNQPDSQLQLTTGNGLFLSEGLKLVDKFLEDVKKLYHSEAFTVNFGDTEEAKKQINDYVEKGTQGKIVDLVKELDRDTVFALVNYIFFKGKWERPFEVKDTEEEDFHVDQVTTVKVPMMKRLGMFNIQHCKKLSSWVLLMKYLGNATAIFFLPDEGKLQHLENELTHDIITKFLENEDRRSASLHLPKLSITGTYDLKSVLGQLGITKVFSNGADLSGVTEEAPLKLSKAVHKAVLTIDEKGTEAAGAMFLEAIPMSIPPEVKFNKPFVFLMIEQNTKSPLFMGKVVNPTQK
Sequence of Immunoglobulin lambda variable 3-25/V2-17 protein (Fragment) (human) (P01717 20-112 limits assumed): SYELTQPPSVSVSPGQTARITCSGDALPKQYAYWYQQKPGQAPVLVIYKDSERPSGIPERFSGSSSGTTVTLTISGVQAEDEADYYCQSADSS

With “recombinant human BiP with C-terminal linker, FLAG-tag and His-tag (BiP-FLAG-His) (from UniProt P11021 19-654)” the # of peptides [1] was 9 peptides, the # of peptides [2] was 1 peptides and the # of peptides [3] was 1 peptides. The # of peptides [4] was 7 peptides, the # of peptides [5] was 2 peptides and the # of peptides [6] was 2 peptides. For the same substance, the # of peptides [7] was 14 peptides, the # of peptides [8] was 2 peptides and the # of peptides [9] was 2 peptides. The # of peptides [10] was 5 peptides, the # of peptides [11] was 10 peptides and the # of peptides [12] was 2 peptides. For the same substance, the # of peptides [13] was 2 peptides, the # of peptides [14] was 1 peptides and the # of peptides [15] was 4 peptides. The # of unique peptides [16] was 1 peptides, the # of unique peptides [17] was 1 peptides and the # of unique peptides [18] was 1 peptides. The # of unique peptides [19] was 2 peptides, the # of unique peptides [20] was 3 peptides and the # of unique peptides [21] was 1 peptides. It also gave a # of unique peptides [22] of 1 peptides, a # of unique peptides [23] of 1 peptides and a # of unique peptides [24] of 1 peptides. For the same substance, the # of unique peptides [25] was 1 peptides, the # of unique peptides [26] was 1 peptides and the # of unique peptides [27] was 2 peptides. It also gave a # of unique peptides [28] of 2 peptides and a # of unique peptides [29] of 10 peptides.
